According to PMC8811534:

Biological target: hAGO2 (human, UniProt Q9UKV8 1-859)
Experiment: EMSA

Chain of hAGO2 (Q9UKV8 whole entry): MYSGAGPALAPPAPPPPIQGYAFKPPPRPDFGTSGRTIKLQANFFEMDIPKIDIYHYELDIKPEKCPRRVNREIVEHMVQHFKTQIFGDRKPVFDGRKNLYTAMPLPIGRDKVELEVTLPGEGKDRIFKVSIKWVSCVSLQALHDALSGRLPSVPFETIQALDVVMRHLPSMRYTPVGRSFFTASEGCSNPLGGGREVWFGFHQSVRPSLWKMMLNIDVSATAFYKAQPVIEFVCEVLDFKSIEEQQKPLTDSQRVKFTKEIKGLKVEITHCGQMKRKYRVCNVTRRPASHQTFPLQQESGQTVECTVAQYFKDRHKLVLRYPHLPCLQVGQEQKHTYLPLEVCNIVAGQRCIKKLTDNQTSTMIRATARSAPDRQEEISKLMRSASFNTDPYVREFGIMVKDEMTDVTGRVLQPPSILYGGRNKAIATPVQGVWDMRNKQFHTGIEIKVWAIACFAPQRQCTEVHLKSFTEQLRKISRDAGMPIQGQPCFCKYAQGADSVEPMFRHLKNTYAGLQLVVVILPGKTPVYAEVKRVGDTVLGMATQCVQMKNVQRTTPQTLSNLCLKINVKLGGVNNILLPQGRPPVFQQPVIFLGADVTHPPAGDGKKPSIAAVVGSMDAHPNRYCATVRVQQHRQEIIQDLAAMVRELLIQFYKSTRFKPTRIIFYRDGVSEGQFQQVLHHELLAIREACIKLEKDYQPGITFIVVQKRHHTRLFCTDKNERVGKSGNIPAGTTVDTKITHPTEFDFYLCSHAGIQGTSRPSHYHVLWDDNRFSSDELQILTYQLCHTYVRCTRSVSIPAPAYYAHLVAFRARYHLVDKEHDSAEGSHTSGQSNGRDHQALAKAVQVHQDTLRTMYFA

B1: 5'Cy5-HIS-SARS2-1 DNA-RNA hybrid (DNA:RNA)
DNA: AGCCTTTACCTCCATTAGCATAGACA
RNA: UGUCUAUGCUAAUGGAGGUAAAGGCU
B1: binds.
